Reference: patent publication US12618081B2, “Brown marmorated and harlequin stink bug pheromone enzyme synthesis and uses thereof” (VIRGINIA TECH INTELLECTUAL PROPERTIES, INC., priority 2019, dated 2026)

Experiments:
[1] = system: H. halys; conditions: added to a trap containing the two principle components of the H. halys pheromone; cited from earlier work
[2] = Kinetic analysis of E. coli expressed MhTPS with [1-3H]-(E,E)-FPP; assay type: biochemical, Murgantia histrionica; conditions: (E,E)-FPP as the substrate
Experimental: (§1) Assays with heterologously expressed protein were performed in assay buffer (see above) in a total volume of 250 μl with partially purified protein, 1 mM DTT, and 50 µM allylic substrate [(E,E)-, (Z,E)- or (Z,Z)-FPP] and incubated at 30° C. for 1 h with a 250 μL hexane overlay. Assays were stopped on ice and compounds extracted by mixing (vortex) at maximum speed for . . . 15 sec. Phases were separated by centrifugation at 4000×g for 10 min and the hexane phase was removed and dried over MgSO4 One μl of liquid sample was injected in splitless mode and analyzed by GC-MS. For identification of the MhTPS product, assays were scaled up by incubating 1 mL protein in a 7 mL screw top test tube and the obtained hexane extract was used for further analysis. To determine enzyme kinetic parameters, assays were performed in a final volume of 50 μL with 0.3 μg partially purified, E. coli expressed MhTPS enzyme and increasing concentrations of [1-3H]-(E,E)-FPP (64 uCi mmol-1). Assays were incubated in triplicate at 30° C. for 5 min prior to extraction of the reaction product with 250 μl hexane. Quantification of the radioactive product were as described by Tholl et al. (Tholl et al., 2005). Calculation of Km and Vmax values was performed by rectangular hyperbolic regression analysis using the Hyperbolic Regression Analysis (HYPER 1.01) software (J. S. Easterby, University of Liverpool).

[3] = IDS (prenyltransferase) activity assay of recombinant M. histrionica proteins, LC-MS/MS; assay type: biochemical, Murgantia histrionica; conditions: IPP and DMAPP as substrates
Experimental: (§2) For enzyme assays, 96 μl of partially purified protein were mixed with 2 μl 50 μM isopentenyl diphosphate (IPP; Sigma) and 2 μl 50 μM dimethylallyl diphosphate (DMAPP; Sigma) and incubated at 30° C. for 2 h. Analysis of IDS enzyme products was done using an Agilent 1260 HPLC system (Agilent Technologies) coupled to an API 5000 triple-quadrupole mass spectrometer (AB Sciex Instruments) according to the protocol described by Beran et al. (Beran et al., 2016).

[4] = TPS activity assay of recombinant M. histrionica IDS-like proteins, GC-MS of hexane extracts; assay type: biochemical, Murgantia histrionica
Experimental: as §1
(§3) GC-MS analysis was performed by liquid injection at 240° C. running in split 5 mode and separated on a GC-2010 gas chromatograph (Shimadzu, Kyoto, Japan) using a 30 m×0.25 mm i.d.×0.25 μm film Zebron ZB-XLB column coupled with a QP2010S mass spectrometer (Shimadzu). The GC program was as follows: 40° C. with 2 min hold, then raised to 220° C. at 5° C./min, then raised to 240° C. at 70° C./min followed by a 2 min hold time. Mass spectrometry was performed with an ion source temperature of 240° C., interface temperature of 280° C., electron ionization (EI) potential of 70 eV and scan range of 50 to 400 atomic mass units. Helium was used as a carrier gas at 1.9 mL/min. Terpene olefin products were identified by comparison of retention times and mass spectra with those of authentic standards.

[5] = TPS activity assay of recombinant H. halys IDS-like proteins, GC-MS; assay type: biochemical, Halyomorpha halys
Experimental: Assays with heterologously expressed protein were performed in assay buffer (see above) in a total volume of 100 μl with partially purified protein, 1 mM DTT, and 50 μM allylic substrate [(E,E)-, (Z,E)- or (Z,Z)-FPP] and incubated at 30° C. for 1 h with a 100 μL hexane overlay. Assays were stopped on ice and compounds extracted by mixing (vortex) at maximum speed for 15 sec. Phases were separated by centrifugation at 4000×g for 10 min and the hexane phase was removed and dried over MgSO4. One μl of liquid sample was injected in splitless mode and analyzed by GC-MS.
as §3

[6] = IDS activity assay of recombinant H. halys HhIDS2, LC-MS; assay type: biochemical, Halyomorpha halys; conditions: IPP and DMAPP
Experimental: as §2, with “μl […] dimethylallyl diphosphate” for “μl 50 μM dimethylallyl diphosphate”, “et al. (2016).” for “et al. (Beran et al., 2016).”

CCC\C=C/C=C/C=C/C(=O)OC [MDT, methyl (E,E,Z)-2,4,6-decatrienoate]
increase in captured bugs [1]: 70%

B1: MhTPS1: IDS-type sesquiterpene (sesquipiperitol) synthase of Murgantia histrionica, 385 aa, GenBank MG662378, SEQ ID NO: 1 (protein)
chain: MVSIAAKSLPKLSGAVFGQFSRRKQLIQRHWLDTRTDQYYDVLRRIVVPECKNIASDVPEYPERIEKLLYYTNPAFSDAWNFTTELIYRTVADESHQTEENITKMYLIRATMDLLFTMSAVLDDISDRSEFRKGKKGWHMICQGGESTALYDGTQMGLFPLYLLKQYFKNDPGYSRLLETVVMTYIKLTIGQTIDVLGQFKKSPSMAEYKRINYYKAGQFVAAGSELAVIHAGITSQDLIDKTVEIFTIAGQIIQTWDDFNDYYSSSEQNGKLSCDFMNAGTTWVSAKAMEVFTPSQAVKFMECYGSDDQSKMKTVQELYDEIDMPKLYTEYVLENYNRCETLIKELPHDRLREACSSYMEWLVVRETPDEDSEHKVALCLNISG
modifications: Murgantia histrionica “harlequin bug” Terpene Synthase (TPS)
Vmax [2]: 675.3±53.7 pkat/mg
kcat [2]: 0.03 ± 0.003 s⁻¹
Km ([2]; read-out: apparent Km): 4 ± 0.7 µM
IDS activity: formation of FPP [3]: not observed
sesquiterpene synthase activity, product ([4]; (E,E)-FPP as a substrate, N-terminal His-tag, E. coli): a terpene alcohol as its main product
pH of highest activity ([4]; (E,E)-FPP as substrate): 7
sesquipiperitol production ([4]; (Z,E)-FPP as substrate): at lower levels
enzymatic activity ([4]; (Z,Z)-FPP as the substrate): almost no enzymatic activity
conversion of GPP, products ([4]; GPP as substrate): several monoterpene olefins
increase of activity (relative amount of sesquipiperitol) ([4]; between 0.1 and 10 mM Mg^2+, (E,E)-FPP as substrate): approximately 2 fold
formation of terpene products ([4]; incubated with IPP and DMAPP): no formation of terpene products

B2: HhIDS2: bona fide IDS enzyme of Halyomorpha halys making (E,E)-FPP, 403 amino acids, GenBank MG870389 (protein)
chain: MPFAKLCVQKLSNPLMKLCYPNLNGRLSLSKFSNSLDNSTFKFLSCNPHTICREHNTVAIRPQTITKDDKRDFMAVFPDIVRDLTQQDPGISDLSTLISKLMQYNVSGGKKVRGLTVVYSYRMLAPDHDLTPENIRLAQILGWCVEMLQGFFVVIDDLTDQSVTRRGRPCWYRLPGIGLRASSDALLIQAGTFQLLQQHCKDKEFYVDLVELFLDATRRTTYGQTLDLVSSFPNITHLTMDRYNFITKYKTSYYTFHLPVAIAMYMAGIYNTELHRQAKSVLLEMGHYFQVQDDYLDVFSDEEVSGKKGTDIQEGKCTWLAIIAFQRASPSQREILESCYGSKDPEKIQKVKDIFIEIGLPAVFHAYEEETYNLITRQIQQLSEGLPHELFLTLLHKMYGRKQ
modifications: HhFPPS
notes: bona fide IDS enzyme of Halyomorpha halys making (E,E)-FPP, 403 amino acids, GenBank MG870389
terpene product formation ([5]; FPP isomers as substrate): did not produce a terpene product
IDS activity: product [6]: only (E,E)-FPP

B3: HhIDS1: IDS-type sesquiterpene synthase of Halyomorpha halys, 377 amino acids, main product elemol, GenBank MG917093 (protein)
chain: MIPKTLGNFTGYVLRIALNKKHVNVRHKLDTDIGKYYQTLNDVVIPECMEFVKDAQGLPQRMKECIGYTTPYCYEGWNFCVELLYKTVADKPHQTEENLKKMRILRVLSDMSHSMHFILDDYADKAEFRQGKKIWASICEGGQEAAIYDTFTVNYLINCMLQRHFRNDPGFTKMCEMFSWVNGNSGIGQVLDILDHKNSDFSDYASWKNKVEYKSRNTMCAFPVLGLLHAGLTCNDLIHKTMDIFGDYGLMFQVWNDFMDFYSVQEESGKGNYDCKNNVKTWATITAMSHFNPAQAKEFRDCYGTNDPAKRSRVRELFDEIDLPRKYLDYLRNIRVTVEKKISELSDARVRDASTSYLEWLHGNGHHDVELEILKAP
modifications: HhTPS2
notes: IDS-type sesquiterpene synthase of Halyomorpha halys, 377 amino acids, main product elemol, GenBank MG917093
sesquiterpene products ([5]; either (E,E)-FPP or (Z,E)-FPP as substrates): several sesquiterpene olefins and alcohols at low abundance
